Measured values from the supplement of paper PMC7877785.
± gives the uncertainty stated by the source.

Experiment: self-splicing fitness, log relative to wild type (ln ratio); higher = more splicing; Tetrahymena group I intron in knt gene, E. coli kanamycin selection, DiMSum; sequences stand for … in CUCUCU…GGAGGGAAAAGUUAUCAGGCAUGCACCUGGUAGCUAGUCUUUAAACCAAUAGAUUGCAUCGGUUUAAAAGGCAAGACCGUCAAAUUGCGGGAAAGGGGUCAACAGCCGUUCAGUACCAAGUCUCAGGGGAAACUUUGAGAUGGCCUUGCAAAGGGUAUGGUAAUAAGCUGACGGACAUGGUCCUAACCACGCAGCCAAGUCCUAAGUCAACAGAUCUUCUGUUGAUAUGGAUGCAGUUCACAGACUAAAUGUCGGUCGGGGAAGAUGUAUUCUUCUCAUAAGAUAUAGUCGGACCUCUCCUUAAUGGGAGCUAGCGGAUGAAGUGAUGCAACACUGGAGCCGCUGGGAACUAAUUUGUAUGCGAAAGUAUAUUGAUUAGUUUUGGAGUACUCGUGGUCG
Summary of the method: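 Colonies from six replicate transformations of E. coli BL21(DE3) were pooled and amplicon-sequenced on an Illumina HiSeq 2500. The library placed an intron with all eight P1ex-region nucleotides randomised inside the knt kanamycin-resistance gene on pET-22b(+), and cells grew overnight at 37°C or 30°C on LB agar with or without 25 μg/mL kanamycin (plus 100 μg/mL carbenicillin, 50 μM IPTG, 0.2% rhamnose). Fitness is the DiMSum error-weighted combination of wild-type-normalised replicate fold changes, kanamycin versus none.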

Row | Sequence | self-splicing fitness (ln) (30 °C) | self-splicing fitness (ln) (37 °C)
1 | AUCAAGCAAUAUUACGACGA | -1.26 ± 0.095 | -0.128 ± 0.11
2 | GUCAAGCAAUAUUACGGUUC | -0.665 ± 0.068 | -0.255 ± 0.1
3 | UAAUAGCAAUAUUACGUCGC | -3.86 ± 0.43 | -1.71 ± 0.35
4 | AAUUAGCAAUAUUACGUGAU | -1.87 ± 0.13 | -1.56 ± 0.16
5 | UUGAAGCAAUAUUACGUCGU | -1.04 ± 0.074 | -0.397 ± 0.11
6 | UUCGAGCAAUAUUACGCAUG | -1.2 ± 0.23 | -2.21 ± 0.3
7 | CGCGAGCAAUAUUACGUCCG | -2.81 ± 0.37 | 1.32 ± 0.29
8 | AUGAAGCAAUAUUACGCGCA | 0.498 ± 0.096 | 0.526 ± 0.12
9 | ACAAAGCAAUAUUACGCCAA | -2.34 ± 0.24 | -1.86 ± 0.18
10 | GGUGAGCAAUAUUACGCUUU | -2.63 ± 0.4 | -3.04 ± 0.47
11 | UCGCAGCAAUAUUACGGGCG | -2.7 ± 0.13 | -0.856 ± 0.12
12 | GCUGAGCAAUAUUACGAGUA | -2.25 ± 0.31 | -1.72 ± 0.35
13 | UAACAGCAAUAUUACGGGCG | -0.476 ± 0.064 | 0.217 ± 0.087
14 | CACAAGCAAUAUUACGUCCA | -3.23 ± 0.2 | -1.59 ± 0.12
15 | AGCAAGCAAUAUUACGCUGG | -4.34 ± 0.41 | -2.95 ± 0.26
16 | UCAGAGCAAUAUUACGCGCG | -2.44 ± 0.19 | -1.79 ± 0.18
17 | GACAAGCAAUAUUACGUCUG | -3.26 ± 0.16 | -2.89 ± 0.15
18 | UUAUAGCAAUAUUACGCCUA | -1.55 ± 0.15 | 0.273 ± 0.2
19 | GUAGAGCAAUAUUACGCCAC | -1.7 ± 0.29 | 
20 | CGUAAGCAAUAUUACGUGCG | -2.95 ± 0.17 | -2.17 ± 0.16
21 | AGGAAGCAAUAUUACGCAGC | -3.55 ± 0.33 | -1.47 ± 0.31
22 | GAUUAGCAAUAUUACGUAGC | -1.74 ± 0.14 | -1.33 ± 0.18
23 | AUCUAGCAAUAUUACGAGGA | -2.83 ± 0.32 | -2.01 ± 0.21
24 | AACCAGCAAUAUUACGUAGC | -2.7 ± 0.089 | -2.17 ± 0.11
25 | UGAAAGCAAUAUUACGAGAA | -2.32 ± 0.23 | -1.22 ± 0.15

Row | Sequence | self-splicing fitness (ln) (30 °C) | self-splicing fitness (ln) (37 °C)
26 | GCAUAGCAAUAUUACGGCCC | -0.542 ± 0.32 | -0.431 ± 0.37
27 | CCCCAGCAAUAUUACGAUUG | -3.58 ± 0.11 | -2.72 ± 0.14
28 | GUCAAGCAAUAUUACGCCUG | -3.6 ± 0.25 | -2.6 ± 0.22
29 | UUUGAGCAAUAUUACGGGUU | -3.23 ± 0.34 | -2.91 ± 0.48
30 | CCGUAGCAAUAUUACGAGCC |  | -1.01 ± 0.42
31 | ACCGAGCAAUAUUACGGCGU | -0.733 ± 0.082 | -0.172 ± 0.11
32 | GCUGAGCAAUAUUACGGUCG | -2.59 ± 0.17 | -2.24 ± 0.22
33 | ACUGAGCAAUAUUACGUUAA | -4.3 ± 0.42 | -2.15 ± 0.28
34 | AUAGAGCAAUAUUACGUAGC | -3.16 ± 0.29 | -2.27 ± 0.3
35 | CCCAAGCAAUAUUACGUUCU | -3.36 ± 0.14 | -3.5 ± 0.22
36 | GAGAAGCAAUAUUACGUUCU | -4 ± 0.36 | -2.01 ± 0.23
37 | AUUCAGCAAUAUUACGUGUU | -2.68 ± 0.1 | -1.39 ± 0.089
38 | UGCUAGCAAUAUUACGCGGU | -4.3 ± 0.42 | -2.36 ± 0.31
39 | GCCAAGCAAUAUUACGUACU | -1.15 ± 0.098 | -0.739 ± 0.12
40 | AGCUAGCAAUAUUACGGGAA | -3.13 ± 0.28 | -1.67 ± 0.22
41 | GAUGAGCAAUAUUACGAAUC | -3.19 ± 0.41 | -1.89 ± 0.29
42 | CGUAAGCAAUAUUACGACAA |  | -1.32 ± 0.23
43 | GCUUAGCAAUAUUACGUUCA | -1.01 ± 0.15 | -1.21 ± 0.17
44 | AGCGAGCAAUAUUACGUAGC | -2.83 ± 0.26 | -0.813 ± 0.27
45 | CCCUAGCAAUAUUACGGUCU | -3.61 ± 0.21 | -1.72 ± 0.17
46 | AAGGAGCAAUAUUACGGGUA | -2.64 ± 0.24 | -2.3 ± 0.46
47 | GGGCAGCAAUAUUACGUGCC |  | -0.519 ± 0.48
48 | AUCCAGCAAUAUUACGGUUU | -1.04 ± 0.05 | -0.324 ± 0.068
49 | UUUUAGCAAUAUUACGUUCA | -1.18 ± 0.21 | -0.458 ± 0.22
